Values quoted from earlier work, collected in patent US20170240926A1, “METHODS FOR PRENYLATION OF PEPTIDES AND THEIR USE IN OVER-PRODUCTION OF FARNESENE AND GERANYLGERANYL TERPENES” (University of North Texas, priority 2016, published 2017).

Molecular target: FTase (Rattus norvegicus, UniProt Q02293+Q04631)
Conditions: 10 μM FPP, 0.4-10 μM dansylated peptide, 25-300 nM FTase, 50 mM HEPPSO pH 7.8, 25° C.

kfarn: 0.46 ± 0.05 s⁻¹
Substance: CFLS: peptide of the form dansyl-TKCxxx with C-terminal CFLS; SCAMPER
